According to publication PMC11090050:

Molecular target: MBP-Rubicon RH (Rubicon Homology domain of Rubicon, wild type) (UniProt Q92622)
Experiment: ITC; MBP-Rubicon RH (80 µM) in the chamber, RAB7A (800 µM) in the syringe; 13 injections at 25°C; 50 mM HEPES 7.5, 150 mM NaCl, 2 mM MgCl2, 10 mM TCEP; simple single-binding-site fit

Chain of UniProt Q92622 (Q92622 699-949): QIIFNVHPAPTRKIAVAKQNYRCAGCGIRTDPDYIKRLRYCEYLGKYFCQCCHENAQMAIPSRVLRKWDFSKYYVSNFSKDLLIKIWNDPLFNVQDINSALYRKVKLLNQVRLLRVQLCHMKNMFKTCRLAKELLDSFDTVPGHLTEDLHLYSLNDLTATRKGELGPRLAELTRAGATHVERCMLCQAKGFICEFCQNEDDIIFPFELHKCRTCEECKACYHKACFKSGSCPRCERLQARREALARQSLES

Kd: 1700 nM
stoichiometry N: 0.7
Substance: RAB7A (recombinantly purified, unlabelled, as used for ITC) (from UniProt P51149 2-182) (natural protein)
